Data reported in the supplement of paper PMC7877785.
± gives the uncertainty stated by the source.

Assay: self-splicing fitness, log relative to wild type (ln ratio); higher = more splicing; Tetrahymena group I intron in knt gene, E. coli kanamycin selection, DiMSum; sequences stand for … in CUCUCU…GGAGGGAAAAGUUAUCAGGCAUGCACCUGGUAGCUAGUCUUUAAACCAAUAGAUUGCAUCGGUUUAAAAGGCAAGACCGUCAAAUUGCGGGAAAGGGGUCAACAGCCGUUCAGUACCAAGUCUCAGGGGAAACUUUGAGAUGGCCUUGCAAAGGGUAUGGUAAUAAGCUGACGGACAUGGUCCUAACCACGCAGCCAAGUCCUAAGUCAACAGAUCUUCUGUUGAUAUGGAUGCAGUUCACAGACUAAAUGUCGGUCGGGGAAGAUGUAUUCUUCUCAUAAGAUAUAGUCGGACCUCUCCUUAAUGGGAGCUAGCGGAUGAAGUGAUGCAACACUGGAGCCGCUGGGAACUAAUUUGUAUGCGAAAGUAUAUUGAUUAGUUUUGGAGUACUCGUGGUCG
How it was run: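 Pooled colonies went to amplicon sequencing on an Illumina HiSeq 2500 after six replicate transformations. The plates were LB agar with 100 μg/mL carbenicillin, 50 μM IPTG and 0.2% rhamnose, with or without 25 μg/mL kanamycin, incubated overnight at 37°C or 30°C. The E. coli BL21(DE3) library had all eight P1ex-region intron nucleotides randomised, the intron placed in the knt kanamycin-resistance gene on pET-22b(+). DiMSum fitness is the error-weighted combination of replicate fold changes, kanamycin against none, normalised to wild type.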

Sequence | self-splicing fitness (ln) (30 °C) | self-splicing fitness (ln) (37 °C)
UACGAGCAAUAUUACGGCGG | -1.79 ± 0.13 | -1.08 ± 0.17
CAUAAGCAAUAUUACGAAUG | -3.79 ± 0.23 | -2.32 ± 0.19
UAAGAGCAAUAUUACGUGGG | -3.82 ± 0.42 | -2.68 ± 0.27
CGUUAGCAAUAUUACGGCCU | -1.53 ± 0.15 | -1.26 ± 0.23
UCACAGCAAUAUUACGGCAU | -4.11 ± 0.22 | -2.26 ± 0.14
GCCGAGCAAUAUUACGCUGA | -1.88 ± 0.17 | -0.952 ± 0.13
UUGCAGCAAUAUUACGAAAC | -3.32 ± 0.41 | -1.87 ± 0.45
GAAUAGCAAUAUUACGUGGU | -3.01 ± 0.15 | -2.74 ± 0.24
ACCCAGCAAUAUUACGGGGU | -3.58 ± 0.14 | -3 ± 0.14
GAUCAGCAAUAUUACGGUCA | -1.6 ± 0.14 | -0.459 ± 0.1
CACUAGCAAUAUUACGGACA | -1.84 ± 0.16 | -1.99 ± 0.18
GUACAGCAAUAUUACGGCCA | -0.539 ± 0.17 | -1.13 ± 0.17
CUCGAGCAAUAUUACGGGGG | -4.18 ± 0.42 | 
ACGGAGCAAUAUUACGAGUC | -3.83 ± 0.33 | -2.64 ± 0.38
AGUUAGCAAUAUUACGGCAA | -0.82 ± 0.08 | 0.163 ± 0.11
ACAUAGCAAUAUUACGGCGC | -1.1 ± 0.083 | -0.521 ± 0.11
UUCAAGCAAUAUUACGUAAU | -2.49 ± 0.087 | -1.56 ± 0.1
CCGGAGCAAUAUUACGAUCC | -2.16 ± 0.49 | 
ACCAAGCAAUAUUACGAAGG | -2.34 ± 0.12 | -1.09 ± 0.14
GCAAAGCAAUAUUACGCGAU | -2.8 ± 0.23 | -2.73 ± 0.3
CUCGAGCAAUAUUACGUCCA | -1.95 ± 0.25 | -3.15 ± 0.47
CUACAGCAAUAUUACGUAUC | -2.78 ± 0.19 | -3.07 ± 0.24
UAACAGCAAUAUUACGCGAA | -1.9 ± 0.11 | -0.949 ± 0.11
AGCAAGCAAUAUUACGUCCG | -0.909 ± 0.12 | -0.462 ± 0.14
CCGCAGCAAUAUUACGAGUA | -3.31 ± 0.24 | -2.82 ± 0.28

Sequence | self-splicing fitness (ln) (30 °C) | self-splicing fitness (ln) (37 °C)
AACUAGCAAUAUUACGAAGC | -2.35 ± 0.4 | -0.29 ± 0.35
AUUUAGCAAUAUUACGCGCA | -0.312 ± 0.13 | -0.00399 ± 0.16
UGAAAGCAAUAUUACGCAAA | -2.12 ± 0.11 | -0.812 ± 0.11
AAACAGCAAUAUUACGUGCC | -2 ± 0.1 | -1.31 ± 0.13
GUACAGCAAUAUUACGGUAG | -1.31 ± 0.062 | -0.303 ± 0.068
GUGUAGCAAUAUUACGAUAU | -0.699 ± 0.17 | -0.881 ± 0.21
GCCCAGCAAUAUUACGUGCG | -3.42 ± 0.21 | -1.71 ± 0.17
AUACAGCAAUAUUACGACGA | -1.84 ± 0.13 | -0.966 ± 0.13
AAAAAGCAAUAUUACGUAUU | -1.92 ± 0.077 | -1.39 ± 0.11
GGAAAGCAAUAUUACGGGCC | -2.41 ± 0.23 | -2.16 ± 0.32
UGUAAGCAAUAUUACGUGAG | -1.07 ± 0.047 | -0.92 ± 0.077
GACGAGCAAUAUUACGUUCG | -4.1 ± 0.24 | -2.24 ± 0.23
UGAAAGCAAUAUUACGUGAA | -1.3 ± 0.07 | -1.5 ± 0.085
GUGCAGCAAUAUUACGGUGC | -1.91 ± 0.19 | -2.31 ± 0.28
CAAAAGCAAUAUUACGUAUG | -2.89 ± 0.098 | -2.22 ± 0.13
CCAGAGCAAUAUUACGCCGC |  | -0.773 ± 0.45
AUGGAGCAAUAUUACGUGAA | -2.92 ± 0.27 | -2.03 ± 0.42
AAGCAGCAAUAUUACGCAAC | -2.62 ± 0.12 | -1.49 ± 0.13
GACAAGCAAUAUUACGAAAU | -2.47 ± 0.14 | -0.766 ± 0.14
AUGGAGCAAUAUUACGAAUU | -3.14 ± 0.47 | -1.14 ± 0.25
UCCAAGCAAUAUUACGUAGU | -1.27 ± 0.068 | -0.483 ± 0.091
UGUUAGCAAUAUUACGGUGA | -1.51 ± 0.18 | -0.192 ± 0.19
CGGAAGCAAUAUUACGCACA | -1.07 ± 0.15 | 0.386 ± 0.16
GUCUAGCAAUAUUACGGGCC | -3.14 ± 0.36 | 
GAUAAGCAAUAUUACGGCAU | -0.333 ± 0.06 | 0.188 ± 0.085

Sequence | self-splicing fitness (ln) (30 °C) | self-splicing fitness (ln) (37 °C)
UCUAAGCAAUAUUACGGGAC | -3.56 ± 0.35 | -2.34 ± 0.4
ACGAAGCAAUAUUACGUUGU | -2.95 ± 0.14 | -1.86 ± 0.12
CGUGAGCAAUAUUACGCCAA | -3.41 ± 0.36 | 
AGGGAGCAAUAUUACGGCUU | -3.29 ± 0.25 | -1.11 ± 0.35
GUCGAGCAAUAUUACGUCUU | -2 ± 0.1 | -1.39 ± 0.09
CUGUAGCAAUAUUACGCCUG | -0.759 ± 0.14 | 0.521 ± 0.16
UUAUAGCAAUAUUACGGGUA | -2.85 ± 0.2 | -1.65 ± 0.19
CUAUAGCAAUAUUACGCGAU | -2.31 ± 0.12 | -1.5 ± 0.12
UGCAAGCAAUAUUACGACUG | 0.127 ± 0.065 | 0.37 ± 0.087
UCGAAGCAAUAUUACGGCGA | -0.741 ± 0.12 | -0.539 ± 0.17
CAUGAGCAAUAUUACGAUAU | -3.32 ± 0.25 | -2 ± 0.31
ACUGAGCAAUAUUACGCGCC | -2.73 ± 0.33 | 
UAUAAGCAAUAUUACGUGUC | -3.33 ± 0.25 | -1.5 ± 0.34
AGGAAGCAAUAUUACGUAUG | -2.39 ± 0.14 | -2.3 ± 0.16
AAAGAGCAAUAUUACGGCUG | -2.36 ± 0.1 | -1.12 ± 0.12
GGUGAGCAAUAUUACGGUAG | -2.67 ± 0.22 | -2.59 ± 0.33
CACCAGCAAUAUUACGUUUU | -3.95 ± 0.15 | -3.22 ± 0.18
GUACAGCAAUAUUACGAUUU | -1.28 ± 0.11 | -0.49 ± 0.089
UAACAGCAAUAUUACGAGAA | -2.22 ± 0.22 | -2.07 ± 0.23
AUGAAGCAAUAUUACGGGCU | -1.52 ± 0.11 | -0.445 ± 0.13
GUCAAGCAAUAUUACGAACU | -2.42 ± 0.11 | -1.38 ± 0.12
CAGUAGCAAUAUUACGUUUA | -3.19 ± 0.23 | -3.02 ± 0.25
AGAGAGCAAUAUUACGUAGG |  | -2.16 ± 0.43
UUUAAGCAAUAUUACGCGGU | -3.46 ± 0.26 | -1.85 ± 0.23
UGCUAGCAAUAUUACGGCUU | -0.619 ± 0.13 | -1.06 ± 0.15

Sequence | self-splicing fitness (ln) (30 °C) | self-splicing fitness (ln) (37 °C)
GAGAAGCAAUAUUACGAUGA | -1.04 ± 0.12 | -0.334 ± 0.11
ACGCAGCAAUAUUACGCUAG | -3.42 ± 0.22 | -2.33 ± 0.24
UGAUAGCAAUAUUACGAGAC |  | -2.59 ± 0.34
GCCGAGCAAUAUUACGACCU | -2.33 ± 0.3 | -1.54 ± 0.36
AAUUAGCAAUAUUACGAGCA | -1.1 ± 0.12 | -0.758 ± 0.1
UGACAGCAAUAUUACGCGGG | -2.59 ± 0.17 | -1.24 ± 0.14
GGCCAGCAAUAUUACGUAAC | -1.22 ± 0.082 | -1.19 ± 0.073
UAAUAGCAAUAUUACGAAAG | -1.92 ± 0.19 | -2.03 ± 0.31
AAUGAGCAAUAUUACGUUUA | -3.81 ± 0.35 | -2.21 ± 0.22
UUAGAGCAAUAUUACGUAAC | -2.76 ± 0.39 | -1.73 ± 0.49
CGUAAGCAAUAUUACGGACA | -0.986 ± 0.099 | -1.18 ± 0.12
AUAAAGCAAUAUUACGGUUG | -1.68 ± 0.1 | -1.36 ± 0.15
AAAGAGCAAUAUUACGGGAG | -3.34 ± 0.21 | -2.8 ± 0.27
UGUUAGCAAUAUUACGCCAG | -1.36 ± 0.23 | -1.76 ± 0.35
CCUGAGCAAUAUUACGUGGU | -3.09 ± 0.16 | -2.94 ± 0.21
GGAGAGCAAUAUUACGUACA |  | -1.61 ± 0.47
CUGUAGCAAUAUUACGUCCG | -0.133 ± 0.08 | 0.0507 ± 0.11
GUCAAGCAAUAUUACGUCUG | -3.64 ± 0.28 | -0.0416 ± 0.085
CGGUAGCAAUAUUACGAGUU | -3.87 ± 0.36 | -3.26 ± 0.27
CGAAAGCAAUAUUACGAUUC |  | -2.13 ± 0.26
CAUCAGCAAUAUUACGUUUG | -1.57 ± 0.064 | -0.71 ± 0.089
CGCCAGCAAUAUUACGGACC | -1.3 ± 0.15 | -0.361 ± 0.18
CGUAAGCAAUAUUACGUGCC | -2.64 ± 0.23 | -1.67 ± 0.2
